Measured values: publication doi:10.1101/2023.01.09.523336

Molecular target: Cyanophycin synthetase 1 (CphA1) from Tatumella morbirosei DSM 23827 (Tatumella morbirosei DSM 23827)
Assay: SEC

- stoichiometry N: 4
Substance: Cyanophycin synthetase 1 (CphA1) from Tatumella morbirosei DSM 23827 (enzyme)
